Laboratory results: patent publication US20240239881A1 (Innovent, published 2024)
Residue numbers refer to the chain shown, from its start.

How the values were obtained:
Rat ANG2 = target: T1, Rat ANG2 (rat, UniProt O35462 19-496, limits assumed); test: SPR, Biacore T200, antibody captured on Protein G chip
T1 sequence (looked up): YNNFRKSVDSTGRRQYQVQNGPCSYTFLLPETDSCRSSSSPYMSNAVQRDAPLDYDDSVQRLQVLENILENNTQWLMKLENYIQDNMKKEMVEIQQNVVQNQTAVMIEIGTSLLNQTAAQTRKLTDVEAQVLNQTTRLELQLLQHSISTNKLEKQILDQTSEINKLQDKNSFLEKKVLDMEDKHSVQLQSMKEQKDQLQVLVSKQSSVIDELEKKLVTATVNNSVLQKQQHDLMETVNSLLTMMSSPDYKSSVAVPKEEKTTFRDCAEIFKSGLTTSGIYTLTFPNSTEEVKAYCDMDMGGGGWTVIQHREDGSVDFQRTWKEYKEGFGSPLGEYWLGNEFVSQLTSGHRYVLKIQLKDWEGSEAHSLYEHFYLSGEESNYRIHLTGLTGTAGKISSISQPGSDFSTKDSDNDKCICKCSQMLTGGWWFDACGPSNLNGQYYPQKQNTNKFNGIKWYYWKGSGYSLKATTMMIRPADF
Procedure: (§1) The antibody was diluted to 1 μg/mL and was captured onto channel 2 for 30 s, and channel 1 was the blank control channel. The gradient-diluted Human ANG2, Rhesus ANG2, Rabbit ANG2, Rat ANG2 and Mouse ANG2 were sequentially injected into channels 1 and 2 of the chip, from low to high concentrations (0-32 nM), at a flow rate of 30 μL/min, with one concentration per cycle, and with 180 s association time and 1200 s dissociation time at 25° C. Finally, the chip was regenerated using Glycine pH 1.5 at 30 μL/min for 30 s. The affinity assay was repeated three times.

Mouse ANG2 = target: T2, Mouse ANG2 (mouse, UniProt O35608 19-496, limits assumed); test: as above
T2 sequence (looked up): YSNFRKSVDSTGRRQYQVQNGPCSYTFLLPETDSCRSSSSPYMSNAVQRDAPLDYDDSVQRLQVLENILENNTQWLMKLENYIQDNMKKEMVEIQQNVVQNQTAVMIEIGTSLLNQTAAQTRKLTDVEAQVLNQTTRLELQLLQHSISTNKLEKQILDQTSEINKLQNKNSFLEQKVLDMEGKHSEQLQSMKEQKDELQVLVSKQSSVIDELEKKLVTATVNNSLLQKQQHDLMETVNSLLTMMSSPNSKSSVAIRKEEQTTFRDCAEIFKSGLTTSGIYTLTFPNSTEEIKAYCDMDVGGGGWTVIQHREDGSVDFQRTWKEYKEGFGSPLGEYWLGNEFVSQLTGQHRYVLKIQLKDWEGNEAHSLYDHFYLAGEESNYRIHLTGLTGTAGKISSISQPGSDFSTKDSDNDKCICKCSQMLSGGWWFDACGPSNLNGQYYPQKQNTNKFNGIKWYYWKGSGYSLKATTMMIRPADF
Procedure: as §1

Rhesus ANG2 = target: T3, Rhesus ANG2 (rhesus, UniProt F6QXG0 19-496); test: SPR, Biacore T200, antibody captured on Protein G chip, experiment 1
T3 sequence: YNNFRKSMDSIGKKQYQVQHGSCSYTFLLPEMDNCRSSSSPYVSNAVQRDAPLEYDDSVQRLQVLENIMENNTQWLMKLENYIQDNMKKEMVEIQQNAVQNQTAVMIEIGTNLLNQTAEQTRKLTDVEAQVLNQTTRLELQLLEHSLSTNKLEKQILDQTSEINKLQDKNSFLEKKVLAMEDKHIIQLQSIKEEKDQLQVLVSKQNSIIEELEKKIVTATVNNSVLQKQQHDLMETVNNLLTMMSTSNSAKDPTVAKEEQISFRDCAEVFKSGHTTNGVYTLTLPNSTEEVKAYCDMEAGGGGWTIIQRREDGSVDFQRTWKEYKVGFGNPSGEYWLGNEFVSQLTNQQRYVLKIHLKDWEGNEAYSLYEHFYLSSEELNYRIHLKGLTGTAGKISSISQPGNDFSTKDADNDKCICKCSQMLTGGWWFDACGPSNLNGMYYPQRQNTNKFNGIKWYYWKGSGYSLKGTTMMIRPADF
Procedure: as §1

Rabbit ANG2 = target: T4, Rabbit ANG2 (rabbit, UniProt G1T9B3 19-496); test: as above
T4 sequence: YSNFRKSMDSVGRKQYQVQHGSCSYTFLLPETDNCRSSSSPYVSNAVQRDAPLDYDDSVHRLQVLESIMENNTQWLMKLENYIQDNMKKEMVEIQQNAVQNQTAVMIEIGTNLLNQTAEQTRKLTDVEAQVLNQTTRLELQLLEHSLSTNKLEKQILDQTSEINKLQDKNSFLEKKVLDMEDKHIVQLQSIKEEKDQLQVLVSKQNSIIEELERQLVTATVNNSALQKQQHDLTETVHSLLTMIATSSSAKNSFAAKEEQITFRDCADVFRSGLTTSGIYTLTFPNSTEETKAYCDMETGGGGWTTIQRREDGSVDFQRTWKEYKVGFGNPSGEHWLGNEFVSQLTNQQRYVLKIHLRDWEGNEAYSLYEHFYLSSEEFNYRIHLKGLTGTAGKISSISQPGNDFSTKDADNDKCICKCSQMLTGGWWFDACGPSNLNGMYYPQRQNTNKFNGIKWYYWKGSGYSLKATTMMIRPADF
Procedure: as §1

human Ang2 = target: T5, human Ang2 (human, UniProt O15123 19-496, limits assumed); test: as above
T5 construct: also called hAng2; h Ang2
T5 sequence: T3 sequence with V279I, L284F, V291I, A410G, G468A
Procedure: as §1

B1: humanized antibody hz81H10.4 (antibody, human IgG1, kappa, V domains shown)
VH: EVQLVESGGGLVKPGGSLRLSCAASGFTFSNYWMNWVRQAPGKGLEWVAEIRLKSNNYATHYAESVKGRFTISRDVSKNTVYLQMNSLKTEDTAVYYCTDTAPFAYWGQGTLVTVSS
VL: DIQMTQSPSSLSASVGDRVTITCKASQDVGTDVAWYQQKPGKAPKLLIYWASTRHTGVPSRFSGSGSGTDFTLTISSLQPEDFATYYCQQYSSYPLTFGGGTKVEIKR
notes: also called IBI335
binding result (Rat ANG2): no binding (tested: 0-32 nM) | binding result (Mouse ANG2): no binding (tested: 0-32 nM) | Kd (Rhesus ANG2): 0.183 nM | koff (Rhesus ANG2): 4.87e-05 s⁻¹ | kon (Rhesus ANG2): 266000 M⁻¹ s⁻¹ | Kd (Rabbit ANG2): 0.518 nM | koff (Rabbit ANG2): 0.000153 s⁻¹ | kon (Rabbit ANG2): 294000 M⁻¹ s⁻¹ | Kd (human Ang2): 0.0694 nM | koff (human Ang2): 1.74e-05 s⁻¹ | kon (human Ang2): 250000 M⁻¹ s⁻¹
